Data taken from article PMC7019167, “Development of a high affinity Anticalin® directed against human CD98hc for theranostic applications” (Theranostics, 2020).
Residue numbers refer to the chain shown, from its start. Values belong to the binder of their own block, whether it stands above or below them.

Columns and labels:
[1] = biological target: T1, glycosylated human CD98hc ectodomain (hCD98hcEDg), monobiotinylated (human, UniProt P08195-2 111-529, single biotin group on the biotin acceptor peptide (BirA co-expressed); N-glycosylated); assay: SPR; biotinylated hCD98hcEDg immobilised (ΔRU ≈ 225) on a streptavidin-functionalized sensorchip (Biotin CAPture kit); BIAcore 2000, 25 °C, HBS-T (20 mM Hepes/NaOH pH 7.5, 150 mM NaCl, 0.005% Tween 20); single cycle kinetics, five injections of a 1:2 dilution series of the lipocalin variant; global 1:1 Langmuir fit; KD = koff/kon; settings: both partners purified
T1 construct: human CD98 heavy chain, extracellular domain, UniProt ID P08195-2, residues Glu111-Ala529; also called 4F2hc; SLC3A2; not shown: biotin acceptor peptide (BAP), N-terminal, kept
T1 sequence (looked up): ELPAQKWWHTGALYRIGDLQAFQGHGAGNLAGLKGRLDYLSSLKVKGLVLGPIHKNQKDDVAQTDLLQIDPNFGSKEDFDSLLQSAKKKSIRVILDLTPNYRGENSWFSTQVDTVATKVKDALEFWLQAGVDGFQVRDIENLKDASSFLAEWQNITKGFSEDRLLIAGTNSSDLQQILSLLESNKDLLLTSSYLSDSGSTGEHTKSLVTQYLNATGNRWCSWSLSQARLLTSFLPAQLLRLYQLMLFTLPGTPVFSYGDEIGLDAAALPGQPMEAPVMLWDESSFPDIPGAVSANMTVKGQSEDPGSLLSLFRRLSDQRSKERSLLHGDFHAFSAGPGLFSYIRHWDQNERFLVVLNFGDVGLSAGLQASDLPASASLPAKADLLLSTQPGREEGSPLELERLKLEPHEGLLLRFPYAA

[2] = biological target: human CD98hc ectodomain, unglycosylated, biotinylated (hCD98hcED) (human) (UniProt P08195); assay: SPR; single cycle kinetics (five injections of a 1:2 dilution series, 3500 s dissociation); biotinylated hCD98hcED immobilised on a streptavidin sensorchip (Biotin CAPture kit), lipocalin variant as analyte; 25 °C, HBS-T; global 1:1 Langmuir fit

- Kd [1]: 162 ± 20.9 nM
- koff [1]: 0.09 s⁻¹
- kon [1]: 560000 M⁻¹ s⁻¹
B1: lipocalin variant (Anticalin) P1E4 (designed binder)
chain: QDSTSDLIPAPPLSKVPLQQNFQDNQFHGKWYVVGIAGNSMLREDKDPFKMTATIYELKEDKSYNVTRVRFDDKKCLYRILTFVPGSQPGEFTLGNIKSRPGWTSWLVRVVSTNYNQHAMVFFKRVHQNRETFWITLYGRTKELTSELKENFIRFSKSLGLPENHIVFPVPIDQCIDG
notes: source: E. coli JM83, periplasmic extract, purified (IMAC, SEC)

- koff [1]: 5e-05 s⁻¹
- kon [1]: 300000 M⁻¹ s⁻¹
B2: lipocalin variant (Anticalin) P3D11 (designed binder)
chain: QDSTSDLIPAPPLSKVPLQQNFQDNQFHGKWYVVGRAGNTGLREDKDPGKMFATIYELKEDKSYNVTYVWFGQKKCMYSIGTFVPGSQPGEFTLGNIKSAPGRTSWLVRVVSTNYNQHAMVFFKSVTQNREGFAITLYGRTKELTSELKENFIRFSKSLGLPENHIVFPVPIDQCIDG
notes: as for B1

- Kd [1]: 0.05 ± 0.003 nM
- koff [1]: 2.2e-05 s⁻¹
- kon [1]: 460000 M⁻¹ s⁻¹
- Kd [2]: 0.06 nM
- koff [2]: 2.6e-05 s⁻¹
- kon [2]: 450000 M⁻¹ s⁻¹
- τ1/2 (complex half-life) [2]: 7.37 h
B3: Anticalin D11vs (P3D11 with Phe71Ser and Gly81Val) (designed binder)
chain: B2 chain with F71S, G81V
notes: source: E. coli, soluble protein at preparative scale, purified
